# Measurements taken from the RNAGym collection of RNA variant scans (doi:10.1073/pnas.2313332121).
# B1: TPR t1 (parent)
# chain: GACCAAUCUGCCCUCAGAGCUCGAGAACAUCUUCGGAUGCAGAGGAGGCAGGCUUCGGUGGCGCGAUAGCGCCAACGUCCUCAACCUCCAAUGCAUCCCACCACAUGAUGAUGCCUGAAGAGCCUUGGUUUUUUG
# Variants of: B1
# Assay: polymerase ribozyme fitness, log enrichment relative to wild type (log ratio); higher = more active; in vitro selection for triplet polymerase activity
# Procedure, shortened: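 Libraries of mutants in each subunit of a heterodimeric triplet polymerase ribozyme were generated by PCR and transcribed. In triplicate, each went through one in vitro selection round: annealing with biotinylated primer, partner subunit and triplets; frozen incubation at −7 °C; gel excision of extended constructs; streptavidin-bead capture; RT-PCR. Fitness, taken from Illumina sequencing of input and output libraries, is the logarithm of a genotype's enrichment over wild-type enrichment, averaged across replicates with inverse-variance weights. The logarithm is base 2, and genotypes needed ≥10 input reads and ≥1 read per output to be kept.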
row,Variant,polymerase ribozyme fitness (log ratio)
1,C4G G120C,-1.15
2,A111C A121C,-0.386
3,A26G C62A C89U,-4.69
4,A46U C64U U109A C124A,-5.73
5,A2U A43U C53G C73U U106A,-7.47
6,A2G C13A C72U U129G,-2.36
7,C49G G63A U87A,-2.53
8,A2U G36C C72G,-4.64
9,C13A U112C,-0.888
10,C11U A121C,1.76
11,G23A A46C C124A,-5.92
12,G45C C76G U125G,-1.06
13,C73G U125A,-1.21
14,C28G U92C C123A,-3.8
15,C80A G117U,-5.19
16,G51U G60U C79G C85A C114U G120U G127U,-4.96
17,U87C C114U,-1.5
18,A5G A6C,-0.0257
19,C72G C85U C102U C104A A105G,-7.34
20,C56A U125G,-1.39
21,A5C U92G,-4.05

row,Variant,polymerase ribozyme fitness (log ratio)
1,A6G C13G G47A C56A C80U,-2.43
2,G45C A74G A75U G77C C88U G135C,-1.28
3,C56A U116A,-3.29
4,A50U C73U,-0.956
5,C85U,-0.966
6,C12A G77U G110C U130C,-3.57
7,C20U G52C C114A C123U,-4.27
8,C70G U81C,-3.83
9,C49U A50G C70A,-4.55
10,C49A A50C C86U,-0.434
11,G48U C70U C86U G113A,-2.66
12,A6U A66G C85G,-2.09
13,C8U C56G,-0.121
14,A84U C102U,-2
15,G51U U54A C123G U129A,-2.43
16,C49G C56G C88U G120C G127A,-2.45
17,U21C G60C,-0.312
18,C64A G120C U125G,-7.86
19,C13U A27C,-2.05
20,G36C A37U C82A U116G G120C,-3.26
21,C4G U59C G65A C85U G110C,-5.92

row,Variant,polymerase ribozyme fitness (log ratio)
1,U21C G120U,-0.0201
2,A50U A83G,-0.122
3,C8A U130G,0.269
4,G42A C72A,-1.98
5,C20U G61A,-1.13
6,G19A G60A C101A U106A A119U C123U,-5
7,C40A A66C G77A,-3.74
8,C76U U112A,0.984
9,G58C G60U G93U U96G,-1.73
10,C8U C53A G117A U130G,-0.499
11,A41G G45U C62A U78A U112G,-5.01
12,A90U C97U U125A G127C U130G,-3.85
13,U59A G60A C80U A95C G120U,-2.35
14,G42U C72G G117U,-4.8
15,C13U A18C A90C U96A,-2.27
16,C64U G117C C123U U125A,-6.02
17,A43U C72A,-1.26
18,C40G C62U G93C G128U,-1.46
19,C56U G60A A68C C70U,-6.82
20,C34G C101U,-6.46
21,C49A C72U G77U,-2.22

row,Variant,polymerase ribozyme fitness (log ratio)
1,C34U U96A,-5.35
2,C104U G120U,-0.787
3,A74C C102U,-1.76
4,C8U C88G,-0.442
5,C31U G60A G61A C123G,-6.05
6,A37U A50C G61A G117C U130C,-4.59
7,A50U G61C G122U,-3.51
8,G71C C85A G117A,-2.67
9,G60A G128C,-2.6
10,C4U G63A U116G A121U G127U,-4.48
11,G69A C115U,-2.83
12,A6U C8A C12A A41U C79A C89A C94U C101U U116G C123U,-6.77
13,U38A G39U C82G U130A,-3.44
14,A46U C53G,-0.865
15,C8G C20A,-1.49
16,C49A C56A,-0.845
17,C12G A37U G61C,-1.78
18,C12A G42U G60A U87A G113A,-4.01
19,A29G G61A C99A U112C C124A G135C,-5.36
20,G10U C22U G47A U96A C123A,-5.89
